In one series the target is T1, Sp_0475 (Streptococcus pneumoniae, UniProt A0A0H2UNN2).
T1 sequence (A0A0H2UNN2 1-646): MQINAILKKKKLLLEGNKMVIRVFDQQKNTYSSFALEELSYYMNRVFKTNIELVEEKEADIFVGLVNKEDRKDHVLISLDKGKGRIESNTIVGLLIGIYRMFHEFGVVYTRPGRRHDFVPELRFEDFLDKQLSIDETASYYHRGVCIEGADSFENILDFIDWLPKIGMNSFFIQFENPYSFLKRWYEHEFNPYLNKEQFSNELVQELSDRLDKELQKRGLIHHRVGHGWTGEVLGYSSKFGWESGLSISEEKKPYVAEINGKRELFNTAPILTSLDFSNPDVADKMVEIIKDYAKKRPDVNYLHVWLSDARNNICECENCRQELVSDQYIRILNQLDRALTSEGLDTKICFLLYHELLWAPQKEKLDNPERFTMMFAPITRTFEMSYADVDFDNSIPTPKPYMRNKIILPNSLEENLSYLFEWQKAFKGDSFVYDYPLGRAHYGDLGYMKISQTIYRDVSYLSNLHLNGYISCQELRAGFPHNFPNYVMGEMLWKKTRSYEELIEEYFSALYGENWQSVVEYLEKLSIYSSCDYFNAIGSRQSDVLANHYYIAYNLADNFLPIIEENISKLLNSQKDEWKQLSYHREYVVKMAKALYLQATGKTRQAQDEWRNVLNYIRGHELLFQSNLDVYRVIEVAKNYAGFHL
Type of series: biochemical.

The subject of series [1] is CC(=O)N[C@H]1[C@H](Oc2ccc([N+](=O)[O-])cc2)O[C@H](COS(=O)(=O)O)[C@@H](O)[C@@H]1O. The series is described as follows: Michaelis-Menten kinetics of hydrolysis by purified mutant. Type of series: biochemical, Streptococcus pneumoniae. Particulars: active site; pH 7.0.
Series [2] relates to CC(=O)N[C@H]1[C@H](Oc2ccc3c(C)cc(=O)oc3c2)O[C@H](COS(=O)(=O)O)[C@@H](O)[C@@H]1O. Described as above. Format: biochemical, Streptococcus pneumoniae. As to conditions: active site; pH 7.0.
Substrate in series [3]: CC(=O)N[C@H]1[C@H](Oc2ccc3c(C)cc(=O)oc3c2)O[C@H](COS(=O)(=O)O)[C@@H](O)[C@@H]1O
The series is described as follows: purified protein. Particulars: active site; pH 7.0.

Substrate in series [4]: CC(=O)N[C@H]1[C@H](Oc2ccc([N+](=O)[O-])cc2)O[C@H](COS(=O)(=O)O)[C@@H](O)[C@@H]1O
The series is described as follows: purified protein. Particulars: active site; R633 interacts with the sulfate; pH 7.0.

For `CC1=N[C@@H]2[C@@H](O)[C@H](O)[C@@H](CO)O[C@@H]2S1` [GlcNAc-thiazoline], on Sp_0475, the inhibition constant Ki – broadly, the dissociation constant of the complex between target and ligand, obtained from inhibition or displacement – stood at 6.6 ± 0.2 mM.

With “Sp_0475 (Streptococcus pneumoniae TIGR4; D309A)”, the Michaelis-Menten constant (Km) (as a rule, the concentration of substrate that gives half-maximal velocity) in series [1] was determined as 4.0 ± 0.1 µM. In series [2], the Km stood at 1.5 ± 0.1 µM; the kcat – broadly, the maximal rate divided by the concentration of active sites – amounted to 0.007 ± 0.0001 s⁻¹; the kcat/Km (commonly the turnover number divided by the Michaelis constant) amounted to 4000 ± 1000 M⁻¹ s⁻¹.

“Sp_0475 (Streptococcus pneumoniae TIGR4; Y436F)”: in series [1], the Km worked out at 57 ± 4 µM, the kcat is 0.15 ± 0.002 s⁻¹ and the kcat/Km stood at 3000 ± 500 M⁻¹ s⁻¹.

B1: Sp_0475 (Streptococcus pneumoniae TIGR4) (protein)
chain: MQINAILKKKKLLLEGNKMVIRVFDQQKNTYSSFALEELSYYMNRVFKTNIELVEEKEADIFVGLVNKEDRKDHVLISLDKGKGRIESNTIVGLLIGIYRMFHEFGVVYTRPGRRHDFVPELRFEDFLDKQLSIDETASYYHRGVCIEGADSFENILDFIDWLPKIGMNSFFIQFENPYSFLKRWYEHEFNPYLNKEQFSNELVQELSDRLDKELQKRGLIHHRVGHGWTGEVLGYSSKFGWESGLSISEEKKPYVAEINGKRELFNTAPILTSLDFSNPDVADKMVEIIKDYAKKRPDVNYLHVWLSDARNNICECENCRQELVSDQYIRILNQLDRALTSEGLDTKICFLLYHELLWAPQKEKLDNPERFTMMFAPITRTFEMSYADVDFDNSIPTPKPYMRNKIILPNSLEENLSYLFEWQKAFKGDSFVYDYPLGRAHYGDLGYMKISQTIYRDVSYLSNLHLNGYISCQELRAGFPHNFPNYVMGEMLWKKTRSYEELIEEYFSALYGENWQSVVEYLEKLSIYSSCDYFNAIGSRQSDVLANHYYIAYNLADNFLPIIEENISKLLNSQKDEWKQLSYHREYVVKMAKALYLQATGKTRQAQDEWRNVLNYIRGHELLFQSNLDVYRVIEVAKNYAGFHL
As to B1, in the series “purified protein [3]”, the Km stood at 264 ± 7 µM, the turnover number (kcat) stood at 55 ± 0.4 s⁻¹ and the specificity constant (kcat/Km) stood at 210000 ± 60000 M⁻¹ s⁻¹. In the series “purified protein [4]”, the Km worked out at 250 ± 4 µM, the kcat was 65 ± 0.3 s⁻¹ and the kcat/Km came to 260000 ± 80000 M⁻¹ s⁻¹.

Values taken from publication PMC10570127 (The Journal of Biological Chemistry, 2023).
